Source: patent US20170226560

Tested on: T1, peptide substrate SEQ ID NO: 1 Lys-Lys-Gly-Phe-Pro-Arg-Gly-Gly-Asp-Cys
T1 sequence: KKGFPRGGDC

trypsin
limit of detection of trypsin (750 nM peptide, 60 min pre-exposure, 20 nm gold nanoparticles): the limit of detection of the colloidal gold nanoparticle-based colorimetric assay developed in the present invention for sensing trypsin is about 20 pM of trypsin | limit of detection of trypsin (750 nM peptide, 3 hours pre-exposure, 20 nm gold nanoparticles): from 20 pM to approximately 2 to 10 pM | limit of detection of trypsin (750 nM peptide, 3 hours pre-exposure, 30 nm gold nanoparticles): further improved from about 2 to 10 pM to a range of from 500 fM to 2 pM | ratio of the absorbance at 650 nm/absorbance at 520 nm (750 nM peptide, 60 min pre-exposure, trypsin up to 2 nM): As the amount of trypsin is increased the absorbance band shifts toward what the gold nanoparticles show in the absence of any peptide and the ratio approaches a value of about 0.05 | time for complete hydrolytic cleavage (gold nanoparticle aggregation, ratio of absorbance at 650 nm to 520 nm; 1000 nM peptide, 200 pM trypsin, 20 C): it took more than 60 min for complete hydrolytic cleavage of a solution of 1000 nM of the peptide substrate SEQ ID NO: 1 Lys-Lys-Gly-Phe-Pro-Arg-Gly-Gly-Asp-Cys by trypsin at a concentration of 200 pM
